B1: CE115HA000 D73E (antibody, human IgG1, kappa, L234A L235A, N297A, name in Kabat numbering)
heavy: QVQLVESGGGVVQPGRSLRLSCAASGFTFSNAWMHWVRQAPGKGLEWVAQIKAKSNNYATYYAESVKGRFTISRDESKNSLYLQMNSLKTEDTAVYYCRYVHYGAYYGVDAWGQGTTVTVSSASTKGPSVFPLAPSSKSTSGGTAALGCLVKDYFPEPVTVSWNSGALTSGVHTFPAVLQSSGLYSLSSVVTVPSSSLGTQTYICNVNHKPSNTKVDKKVEPKSCDKTHTCPPCPAPEAAGGPSVFLFPPKPKDTLMISRTPEVTCVVVDVSHEDPEVKFNWYVDGVEVHNAKTKPREEQYASTYRVVSVLTVLHQDWLNGKEYKCKVSNKALPAPIEKTISKAKGQPREPQVYTLPPSRCELTKNQVSLSCAVKGFYPSDIAVEWESNGQPENNYKTTPPVLDSDGSFFLVSKLTVDKSRWQQGNVFSCSVMHEALHNHYTQKSLSLSPDYKDDDDK
chain: EPKSSDKTHTCPPCPAPELLGGPSVFLFPPKPKDTLMISRTPEVTCVVVDVSHEDPEVKFNWYVDGVEVHNAKTKPREEQYNSTYRVVSVLTVLHQDWLNGKEYKCKVSNKALPAPIEKTISKAKGQPREPQVCTLPPSRDELTKNQVSLWCLVKGFYPSDIAVEWESNGQPENNYKTTPPVLDSDGSFFLYSKLTVDKSRWQQGNVFSCSVMHEALHNRYTQKSLSLSP
light: DIVMTQSPLSLPVTPGEPASISCRSSQSLVHSNRNTYLHWYQQKPGQAPRLLIYKVSNRFSGVPDRFSGSGSGTDFTLKISRVEAEDVGVYYCGQGTQVPYTFGQGTKLEIKRTVAAPSVFIFPPSDEQLKSGTASVVCLLNNFYPREAKVQWKVDNALQSGNSQESVTEQDSKDSTYSLSSTLTLSKADYEKHKVYACEVTHQGLSSPVTKSFNRGEC
notes: one-arm antibody
B2: CE115HA000 D73R (antibody, human IgG1, kappa, L234A L235A, N297A, name in Kabat numbering)
heavy: QVQLVESGGGVVQPGRSLRLSCAASGFTFSNAWMHWVRQAPGKGLEWVAQIKAKSNNYATYYAESVKGRFTISRDRSKNSLYLQMNSLKTEDTAVYYCRYVHYGAYYGVDAWGQGTTVTVSSASTKGPSVFPLAPSSKSTSGGTAALGCLVKDYFPEPVTVSWNSGALTSGVHTFPAVLQSSGLYSLSSVVTVPSSSLGTQTYICNVNHKPSNTKVDKKVEPKSCDKTHTCPPCPAPEAAGGPSVFLFPPKPKDTLMISRTPEVTCVVVDVSHEDPEVKFNWYVDGVEVHNAKTKPREEQYASTYRVVSVLTVLHQDWLNGKEYKCKVSNKALPAPIEKTISKAKGQPREPQVYTLPPSRCELTKNQVSLSCAVKGFYPSDIAVEWESNGQPENNYKTTPPVLDSDGSFFLVSKLTVDKSRWQQGNVFSCSVMHEALHNHYTQKSLSLSPDYKDDDDK
chain: EPKSSDKTHTCPPCPAPELLGGPSVFLFPPKPKDTLMISRTPEVTCVVVDVSHEDPEVKFNWYVDGVEVHNAKTKPREEQYNSTYRVVSVLTVLHQDWLNGKEYKCKVSNKALPAPIEKTISKAKGQPREPQVCTLPPSRDELTKNQVSLWCLVKGFYPSDIAVEWESNGQPENNYKTTPPVLDSDGSFFLYSKLTVDKSRWQQGNVFSCSVMHEALHNRYTQKSLSLSP
light: DIVMTQSPLSLPVTPGEPASISCRSSQSLVHSNRNTYLHWYQQKPGQAPRLLIYKVSNRFSGVPDRFSGSGSGTDFTLKISRVEAEDVGVYYCGQGTQVPYTFGQGTKLEIKRTVAAPSVFIFPPSDEQLKSGTASVVCLLNNFYPREAKVQWKVDNALQSGNSQESVTEQDSKDSTYSLSSTLTLSKADYEKHKVYACEVTHQGLSSPVTKSFNRGEC
notes: one-arm antibody
B3: CE115HA000 D73T (antibody, human IgG1, kappa, L234A L235A, N297A, name in Kabat numbering)
heavy: QVQLVESGGGVVQPGRSLRLSCAASGFTFSNAWMHWVRQAPGKGLEWVAQIKAKSNNYATYYAESVKGRFTISRDTSKNSLYLQMNSLKTEDTAVYYCRYVHYGAYYGVDAWGQGTTVTVSSASTKGPSVFPLAPSSKSTSGGTAALGCLVKDYFPEPVTVSWNSGALTSGVHTFPAVLQSSGLYSLSSVVTVPSSSLGTQTYICNVNHKPSNTKVDKKVEPKSCDKTHTCPPCPAPEAAGGPSVFLFPPKPKDTLMISRTPEVTCVVVDVSHEDPEVKFNWYVDGVEVHNAKTKPREEQYASTYRVVSVLTVLHQDWLNGKEYKCKVSNKALPAPIEKTISKAKGQPREPQVYTLPPSRCELTKNQVSLSCAVKGFYPSDIAVEWESNGQPENNYKTTPPVLDSDGSFFLVSKLTVDKSRWQQGNVFSCSVMHEALHNHYTQKSLSLSPDYKDDDDK
chain: EPKSSDKTHTCPPCPAPELLGGPSVFLFPPKPKDTLMISRTPEVTCVVVDVSHEDPEVKFNWYVDGVEVHNAKTKPREEQYNSTYRVVSVLTVLHQDWLNGKEYKCKVSNKALPAPIEKTISKAKGQPREPQVCTLPPSRDELTKNQVSLWCLVKGFYPSDIAVEWESNGQPENNYKTTPPVLDSDGSFFLYSKLTVDKSRWQQGNVFSCSVMHEALHNRYTQKSLSLSP
light: DIVMTQSPLSLPVTPGEPASISCRSSQSLVHSNRNTYLHWYQQKPGQAPRLLIYKVSNRFSGVPDRFSGSGSGTDFTLKISRVEAEDVGVYYCGQGTQVPYTFGQGTKLEIKRTVAAPSVFIFPPSDEQLKSGTASVVCLLNNFYPREAKVQWKVDNALQSGNSQESVTEQDSKDSTYSLSSTLTLSKADYEKHKVYACEVTHQGLSSPVTKSFNRGEC
notes: one-arm antibody
B4: CE115HA000 D73N (antibody, human IgG1, kappa, L234A L235A, N297A, name in Kabat numbering)
heavy: QVQLVESGGGVVQPGRSLRLSCAASGFTFSNAWMHWVRQAPGKGLEWVAQIKAKSNNYATYYAESVKGRFTISRDNSKNSLYLQMNSLKTEDTAVYYCRYVHYGAYYGVDAWGQGTTVTVSSASTKGPSVFPLAPSSKSTSGGTAALGCLVKDYFPEPVTVSWNSGALTSGVHTFPAVLQSSGLYSLSSVVTVPSSSLGTQTYICNVNHKPSNTKVDKKVEPKSCDKTHTCPPCPAPEAAGGPSVFLFPPKPKDTLMISRTPEVTCVVVDVSHEDPEVKFNWYVDGVEVHNAKTKPREEQYASTYRVVSVLTVLHQDWLNGKEYKCKVSNKALPAPIEKTISKAKGQPREPQVYTLPPSRCELTKNQVSLSCAVKGFYPSDIAVEWESNGQPENNYKTTPPVLDSDGSFFLVSKLTVDKSRWQQGNVFSCSVMHEALHNHYTQKSLSLSPDYKDDDDK
chain: EPKSSDKTHTCPPCPAPELLGGPSVFLFPPKPKDTLMISRTPEVTCVVVDVSHEDPEVKFNWYVDGVEVHNAKTKPREEQYNSTYRVVSVLTVLHQDWLNGKEYKCKVSNKALPAPIEKTISKAKGQPREPQVCTLPPSRDELTKNQVSLWCLVKGFYPSDIAVEWESNGQPENNYKTTPPVLDSDGSFFLYSKLTVDKSRWQQGNVFSCSVMHEALHNRYTQKSLSLSP
light: DIVMTQSPLSLPVTPGEPASISCRSSQSLVHSNRNTYLHWYQQKPGQAPRLLIYKVSNRFSGVPDRFSGSGSGTDFTLKISRVEAEDVGVYYCGQGTQVPYTFGQGTKLEIKRTVAAPSVFIFPPSDEQLKSGTASVVCLLNNFYPREAKVQWKVDNALQSGNSQESVTEQDSKDSTYSLSSTLTLSKADYEKHKVYACEVTHQGLSSPVTKSFNRGEC
notes: one-arm antibody
B5: CE115HA000 D73K (antibody, human IgG1, kappa, L234A L235A, N297A, name in Kabat numbering)
heavy: QVQLVESGGGVVQPGRSLRLSCAASGFTFSNAWMHWVRQAPGKGLEWVAQIKAKSNNYATYYAESVKGRFTISRDKSKNSLYLQMNSLKTEDTAVYYCRYVHYGAYYGVDAWGQGTTVTVSSASTKGPSVFPLAPSSKSTSGGTAALGCLVKDYFPEPVTVSWNSGALTSGVHTFPAVLQSSGLYSLSSVVTVPSSSLGTQTYICNVNHKPSNTKVDKKVEPKSCDKTHTCPPCPAPEAAGGPSVFLFPPKPKDTLMISRTPEVTCVVVDVSHEDPEVKFNWYVDGVEVHNAKTKPREEQYASTYRVVSVLTVLHQDWLNGKEYKCKVSNKALPAPIEKTISKAKGQPREPQVYTLPPSRCELTKNQVSLSCAVKGFYPSDIAVEWESNGQPENNYKTTPPVLDSDGSFFLVSKLTVDKSRWQQGNVFSCSVMHEALHNHYTQKSLSLSPDYKDDDDK
chain: EPKSSDKTHTCPPCPAPELLGGPSVFLFPPKPKDTLMISRTPEVTCVVVDVSHEDPEVKFNWYVDGVEVHNAKTKPREEQYNSTYRVVSVLTVLHQDWLNGKEYKCKVSNKALPAPIEKTISKAKGQPREPQVCTLPPSRDELTKNQVSLWCLVKGFYPSDIAVEWESNGQPENNYKTTPPVLDSDGSFFLYSKLTVDKSRWQQGNVFSCSVMHEALHNRYTQKSLSLSP
light: DIVMTQSPLSLPVTPGEPASISCRSSQSLVHSNRNTYLHWYQQKPGQAPRLLIYKVSNRFSGVPDRFSGSGSGTDFTLKISRVEAEDVGVYYCGQGTQVPYTFGQGTKLEIKRTVAAPSVFIFPPSDEQLKSGTASVVCLLNNFYPREAKVQWKVDNALQSGNSQESVTEQDSKDSTYSLSSTLTLSKADYEKHKVYACEVTHQGLSSPVTKSFNRGEC
notes: one-arm antibody
B6: CE115HA000 D73G (antibody, human IgG1, kappa, L234A L235A, N297A, name in Kabat numbering)
heavy: QVQLVESGGGVVQPGRSLRLSCAASGFTFSNAWMHWVRQAPGKGLEWVAQIKAKSNNYATYYAESVKGRFTISRDGSKNSLYLQMNSLKTEDTAVYYCRYVHYGAYYGVDAWGQGTTVTVSSASTKGPSVFPLAPSSKSTSGGTAALGCLVKDYFPEPVTVSWNSGALTSGVHTFPAVLQSSGLYSLSSVVTVPSSSLGTQTYICNVNHKPSNTKVDKKVEPKSCDKTHTCPPCPAPEAAGGPSVFLFPPKPKDTLMISRTPEVTCVVVDVSHEDPEVKFNWYVDGVEVHNAKTKPREEQYASTYRVVSVLTVLHQDWLNGKEYKCKVSNKALPAPIEKTISKAKGQPREPQVYTLPPSRCELTKNQVSLSCAVKGFYPSDIAVEWESNGQPENNYKTTPPVLDSDGSFFLVSKLTVDKSRWQQGNVFSCSVMHEALHNHYTQKSLSLSPDYKDDDDK
chain: EPKSSDKTHTCPPCPAPELLGGPSVFLFPPKPKDTLMISRTPEVTCVVVDVSHEDPEVKFNWYVDGVEVHNAKTKPREEQYNSTYRVVSVLTVLHQDWLNGKEYKCKVSNKALPAPIEKTISKAKGQPREPQVCTLPPSRDELTKNQVSLWCLVKGFYPSDIAVEWESNGQPENNYKTTPPVLDSDGSFFLYSKLTVDKSRWQQGNVFSCSVMHEALHNRYTQKSLSLSP
light: DIVMTQSPLSLPVTPGEPASISCRSSQSLVHSNRNTYLHWYQQKPGQAPRLLIYKVSNRFSGVPDRFSGSGSGTDFTLKISRVEAEDVGVYYCGQGTQVPYTFGQGTKLEIKRTVAAPSVFIFPPSDEQLKSGTASVVCLLNNFYPREAKVQWKVDNALQSGNSQESVTEQDSKDSTYSLSSTLTLSKADYEKHKVYACEVTHQGLSSPVTKSFNRGEC
notes: one-arm antibody

biological target: T1, CD3 epsilon homodimer protein (UniProt P07766 23-126); assay: SPR, CD3 epsilon homodimer on chip, one-arm antibody as analyte;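 also: surface plasmon resonance at 25 °C with CD3 epsilon homodimer amine-coupled to a CM4 sensor chip, antibody injected as analyte, HBS-EP+ as running buffer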
T1 construct: also called CD3 (CD3 epsilon)
T1 sequence (P07766 23-126): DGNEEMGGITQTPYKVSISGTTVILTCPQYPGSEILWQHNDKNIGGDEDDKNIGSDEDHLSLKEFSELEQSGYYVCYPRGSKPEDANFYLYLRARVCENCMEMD
Procedure: An appropriate amount of CD3 epsilon homodimer protein was immobilized onto Sensor chip CM4 (GE Healthcare Japan Corp.) by the amine coupling method. Then, the antibody having an appropriate concentration was injected thereto as an analyte and allowed to interact with the CD3 epsilon homodimer protein on the sensor chip. Then, the sensor chip was regenerated by the injection of 10 mmol/L glycine-HCl (pH 1.5). The assay was conducted at 25 degrees C., and HBS-EP+(GE Healthcare Japan Corp.) was used as a running buffer. […] Each parameter was calculated using Biacore T200 Evaluation Software (GE Healthcare Japan Corp.).

Binder | KD ratio (KD of CE115HA000/KD of altered form)
B1 | 0.56
B2 | 0.79
B3 | 0.78
B4 | 0.7
B5 | 0.74
B6 | 0.78

Reference: US20210388087A1 (Chugai, published 2021)
